Data reported in publication PMC9640981, “Plant vernalization proteins contain unusual PHD superdomains without histone H3 binding activity” (The Journal of Biological Chemistry, 2022).
Entries after “also recorded” stand apart in the source; their conditions may differ.

Assays:
[1] = test system: VIN3 PHD superdomain; assay: Interaction of negatively charged polymers with VIN3 PHD superdomain (NMR and ITC, summary); type: binding, Phoenix dactylifera; conditions: listed as RNA
Description: ITC was carried out at 25 °C with an iTC 200 Microcalorimeter (GE Healthcare) in 25 mM Tris pH 8, 150 mM NaCl, and 1 mM DTT. Titrations consisted of 19 consecutive 2 μl injections of 0.25 to 1 mM peptide solution (following a preinjection of 0.5 μl) into 50 μM protein (VIN3PHD, VIN3_123-326, VIN3_116-307, OBE1_193-372, or pVP13 VIN3_130-299) at time intervals of 120 s. ITC data were analyzed using MicroCal PEAQ-IT Analysis Software (Malvern Sciences).
For NMR spectroscopy, A. thaliana VIN3_150-208 and P. dactilyfera VIN3_123-326 were expressed in M9 minimal medium supplemented with 0.4% glucose, antibiotics, trace elements, 25 ml overnight culture, and 2 g of ^15N-H4Cl per liter of expression culture. Cultures were grown and processed essentially as described before. NMR samples containing 50 μM ^15N-labeled VIN3_150-208 or VIN3_123-326 were prepared in aqueous buffer (25 mM Tris pH 8, 150 mM NaCl, and 1 mM DTT). The 50 μM ^15N-labeled VIN3_150-208 or VIN3_123-326 was incubated with 0.5 mM histone H3 peptides resuspended in 25 mM Tris pH 8, 150 mM NaCl, and 1 mM DTT for >30 min before measurement. Spectra were recorded on a Bruker Avance-III spectrometer operating at 600 MHz ^1H frequency and equipped with a 5 mm inverse detection cryogenic probe. BEST-TROSY shift correlation experiments ([45]) were acquired with 256 × 1024 points in t1 and t2, respectively. […]

[2] = test system: ^15N-labeled Pd VIN3_123-326; assay: NMR (BEST-TROSY) interaction of negatively charged polymers with Pd VIN3 PHD superdomain; type: binding, Phoenix dactylifera
Description: For NMR spectroscopy, A. thaliana VIN3_150-208 and P. dactilyfera VIN3_123-326 were expressed in M9 minimal medium supplemented with 0.4% glucose, antibiotics, trace elements, 25 ml overnight culture, and 2 g of ^15N-H4Cl per liter of expression culture. Cultures were grown and processed essentially as described before. NMR samples containing 50 μM ^15N-labeled VIN3_150-208 or VIN3_123-326 were prepared in aqueous buffer (25 mM Tris pH 8, 150 mM NaCl, and 1 mM DTT). The 50 μM ^15N-labeled VIN3_150-208 or VIN3_123-326 was incubated with 0.5 mM histone H3 peptides resuspended in 25 mM Tris pH 8, 150 mM NaCl, and 1 mM DTT for >30 min before measurement. Spectra were recorded on a Bruker Avance-III spectrometer operating at 600 MHz ^1H frequency and equipped with a 5 mm inverse detection cryogenic probe. BEST-TROSY shift correlation experiments ([45]) were acquired with 256 × 1024 points in t1 and t2, respectively. Spectra were processed in TopSpin version 3.2 (Bruker), with linear prediction in t1, giving a digital resolution of 2.2 and 8.2 Hz/point in the processed data.
Generation of nucleic acid probes for NMR
FLC DNA was used as a template for the design of a dsDNA 60-mer probe, generated by annealing the sequence (5′ […] 3′) and its complementary oligonucleotide for 2 min at 95 °C. […]

B1: 63-mer RNA: FLC RNA transcript, 5′ GGGAAAGAGAAAACGCUUAGUAUCUCCGGCGACUUGAACCCAAACCUGAGGAUCAAAUUAGGG 3′ (nucleic acid)
chain: GGGAAAGAGAAAACGCUUAGUAUCUCCGGCGACUUGAACCCAAACCUGAGGAUCAAAUUAGGG
modifications: RNA, backbone not given here; further chemistry not fully specified
Question: For B1, which “propensity for interaction with negatively charged polymers (in words)” value [1] is on record?
Answer: moderate propensity for interacting; also recorded: interact weakly; also recorded: can interact instead with negatively charged polymers

Question: What about the “perturbation of BEST-TROSY spectrum (in words)” value ([2]; 50 μM ^15N-labeled VIN3_123-326, 4 μM 60-mer dsDNA or 63-mer RNA (Fig. 6A, B), ssDNA comparison E. F.-E., unpublished) of the same molecule?
Answer: produced perturbations of the same individual crosspeaks

Question: What about the “minimal concentration required to produce spectral perturbations” value ([2]; BEST-TROSY, 50 μM ^15N-labeled VIN3_123-326, 25 mM Tris pH 8, 150 mM NaCl, 1 mM DTT) of the same molecule?
Answer: 2 µM
